The source of these data is the supplement of paper PMC12042874.

± gives the uncertainty stated by the source.

The nature of this data set: amyloid nucleation score (Sup35N fusion, yeast selection) (log enrichment); library NNK2; higher = more nucleation; inactive = no reads after selection. The essentials:
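The nucleation score, computed with DiMSum, is the log enrichment of output over input reads, centred on the mode score of non-aggregating sequences. Sequences with under 100 input reads were dropped. Reads were generated by Illumina sequencing of plasmid inserts from psi-negative yeast with Sup35N fused to peptides of 20 random codons, induced with 100 μM copper sulfate for 24 hours and grown 7 days at 30°C on medium lacking adenine and uracil.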

Substance DICNWHLYDNCLSICSGYR displayed an amyloid nucleation score of 0.951 ± 0.81.
With GFRFSVIGI the figure was -0.101 ± 0.63; with KMQMLWTGVCRVLFVAPQPN, 0.319 ± 0.36.
With YVRYFSIQTGHV, the amyloid nucleation score entry was “inactive”.
Substance ILLTFVPAEKSWTSAIL yielded an amyloid nucleation score of 0.058 ± 0.55.
As for NDDTDQLSTSSIGRRMRMR, the amyloid nucleation score is 0.662 ± 0.81.
NISCNSGSPGSNMTGCQESS: the amyloid nucleation score turned out to be 0.767 ± 0.8.
Consider TICVSSVRRTGKGSWVRDWA, for which the amyloid nucleation score came to 0.356 ± 0.5.
With VSTILYLDY, the amyloid nucleation score stood at 0.218 ± 1.1.
The substance QIDLL registered an amyloid nucleation score of -1.36 ± 1.1.
The substance FGLQMQAWREKDHQENGLIQ gave an amyloid nucleation score of 0.798 ± 0.31.
WVWRIRDCLIVSSTPTGMRV: the amyloid nucleation score was found to be 0.806 ± 0.27.
With EIYCCAYPLFCVWVVTGIRL the figure was 1.62 ± 0.13.
The substance KILNPERRSNGWVMMKFVVD showed an amyloid nucleation score of -0.599 ± 1.
Regarding RHNKNRSVCSYRSKYAKKYV, the amyloid nucleation score was -0.208 ± 0.74.
With ICCRRSMPMIINDLNFMSNS the figure was 7.928 ± 0.035; with QDVFCLSGLNSHCK, -1.45 ± 0.78; with TCWKDYIYIFALVNYSGHRA, “inactive”.
In turn, SNLLWAKSGPKAVWKPGRWD showed an amyloid nucleation score of 0.423 ± 0.41.
The substance MAVLEMRDRWCDLLLTTSRV displayed an amyloid nucleation score of 0.155 ± 0.21.
For the substance SGILVKLVMIFSWKGGGV, the amyloid nucleation score was determined as 2.96 ± 0.066.
Consider AHHPYTNQGSTVRSRAGQWG, for which the amyloid nucleation score is 0.519 ± 0.54.
Take NTHFFVMRVEFGPWYTSSCS: the amyloid nucleation score came out at 2.42 ± 0.21.
The substance EGICFLLMDCSCNNCFLALA came in with an amyloid nucleation score of 4.66 ± 0.055.
With HGDAKFGSVVGAFQDLYS, the amyloid nucleation score stood at 1.29 ± 0.39.
In the case of DSVCYNFNFNTF, the amyloid nucleation score was 5.711 ± 0.027.
In the case of FLLPGCSLIFFYCSGCSMV, the amyloid nucleation score came to 5.014 ± 0.031.
Turning to CIFFLVV, the amyloid nucleation score was 4.79 ± 0.071.
For the substance WLLVDYAASCRGKWCHEMHG, the amyloid nucleation score stood at 0.284 ± 0.19.
For the substance ILGQAGMILFNKLAPRGALR, the amyloid nucleation score result was “inactive”.
With VKAVMWIDLVNRVIMNGHIS the figure was -0.461 ± 0.49; with AVLSITMKGVVWKGLSNLCC, “inactive”.
LSVSDEVRQV registered an amyloid nucleation score of -0.466 ± 0.79.
FSWDPGMIWGKI registered an amyloid nucleation score of 7.203 ± 0.053.
On to FLIFSYIGLFSVISYRSARV, for which the amyloid nucleation score result was “inactive”.
With FGFCGFMVHVGLVRDFLFC, the amyloid nucleation score was determined as 0.257 ± 0.56.
Then CMWLLMTHPHKVTIMQ, with 7.262 ± 0.061; and FVSGRKNETYSKVIHVSDVD, with -0.198 ± 0.62; and IDVSKCVLGKDSSLRGTNTR, with -0.595 ± 0.28.
With MSILTCVPGTNIINSQW, the amyloid nucleation score entry was “inactive”.
Consider YQSVRK, for which the amyloid nucleation score is -0.022 ± 0.55.
In the case of CAVDLFGVAIRALMFRSWGC, the amyloid nucleation score result is “inactive”.
With FHSRAEICLIWNHIVQDWRN the figure was 3.58 ± 0.071; with ILGDNRLKPVTLSRNVALYY, -1.18 ± 0.78.
AESICSSVRSYGMSSFRDPE yielded an amyloid nucleation score of -0.887 ± 0.64.
With LSESRRQVASASDLMKRRIP the figure was 1.24 ± 0.66.
DNYLYYYFYSFRLTEALFIC registered an amyloid nucleation score of -0.297 ± 1.1.
Take TLSKVFRVRPGSMTTHCYIV: the amyloid nucleation score entry was “inactive”.
Take GKFLCDV: the amyloid nucleation score is 0.775 ± 0.31.
Take MINLQYLVGNLAVGL: the amyloid nucleation score came out at 1.37 ± 0.14.
With HIDEYKWT, the amyloid nucleation score stood at 0.546 ± 0.8.
As to ILGVLGFGGSRDRLSTRWGS, the amyloid nucleation score was 1.66 ± 0.16.
Then WHFSRSWDPKFWRRAHSWWE, with 0.276 ± 0.5.
RLYVKWSNSISDSRSLCVP had an amyloid nucleation score of 0.208 ± 0.16.
MCFAHVRNFSEW: the amyloid nucleation score was 1.47 ± 0.15.
With GLRELS the figure was -0.874 ± 0.55.
